T1: Recombinant Syndecan-1 (2780-SD) (human, UniProt P18827 23-254)
T1 sequence (looked up): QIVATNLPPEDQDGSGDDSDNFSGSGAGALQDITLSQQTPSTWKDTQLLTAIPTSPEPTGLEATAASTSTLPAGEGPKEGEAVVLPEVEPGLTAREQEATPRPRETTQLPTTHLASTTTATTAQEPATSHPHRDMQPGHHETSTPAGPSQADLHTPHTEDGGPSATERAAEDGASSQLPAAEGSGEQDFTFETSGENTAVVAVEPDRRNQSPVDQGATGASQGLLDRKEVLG

B1: Recombinant human TREM2 (9256-T2-50) (receptor, UniProt Q9NZC2 19-174, looked up)
chain: HNTTVFQGVAGQSLQVSCPYDSMKHWGRRKAWCRQLGEKGPCQRVVSTHNLWLLSFLRRWNGSTAITDDTLGGTLTITLRNLQPHDAGLYQCQSLHGSEADTLRKVLVEVLADPLDHRDAGDLWFPGESESFEDAHVEHSISRSLLEGEIPFPPTS
B2: Biotinylated IL-34 (ligand, human, UniProt Q6ZMJ4 19-242, looked up)
chain: LGNEPLEMWPLTQNEECTVTGFLRDKLQYRSRLQYMKHYFPINYKISVPYEGVFRIANVTRLQRAQVSERELRYLWVLVSLSATESVQDVLLEGHPSWKYLQEVETLLLNVQQGLTDVEVSPKVESVLSLLNAPGPNLKLVRPKALLDNCFRVMELLYCSCCKQSSVLNWQDCEVPSPQSCSPEPSLQYAATQLYPPPPWSPSSPPHSTGSVRPVRAQGEGLLP
modifications: biotin (biotinylated, site not stated)

Key:
Assay in all cases: ELISA
Biotinylated IL-34 = molecular target: B2
[1] = molecular target: T1, Recombinant Syndecan-1 (2780-SD)
[2] = molecular target: Recombinant human CSF-1R-Fc (329-MR-100) (human, UniProt P07333 20-517)
Chain of Recombinant human CSF-1R-Fc (329-MR-100) (P07333 20-517): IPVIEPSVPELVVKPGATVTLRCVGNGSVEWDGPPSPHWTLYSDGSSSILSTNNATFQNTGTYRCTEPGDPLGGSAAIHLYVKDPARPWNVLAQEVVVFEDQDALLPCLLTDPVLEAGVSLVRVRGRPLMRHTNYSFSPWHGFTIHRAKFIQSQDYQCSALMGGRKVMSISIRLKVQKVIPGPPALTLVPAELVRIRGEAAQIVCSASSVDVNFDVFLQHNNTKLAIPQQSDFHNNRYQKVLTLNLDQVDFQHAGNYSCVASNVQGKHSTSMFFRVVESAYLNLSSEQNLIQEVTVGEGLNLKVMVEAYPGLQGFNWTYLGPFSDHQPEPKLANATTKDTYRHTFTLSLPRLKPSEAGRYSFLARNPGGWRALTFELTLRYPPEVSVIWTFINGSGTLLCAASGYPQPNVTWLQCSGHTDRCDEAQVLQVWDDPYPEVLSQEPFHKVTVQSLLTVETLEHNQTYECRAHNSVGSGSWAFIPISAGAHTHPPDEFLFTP

| binding result (Biotinylated IL-34) | binding result [1] | binding result [2] | Binder |
| --- | --- | --- | --- |
| binds |  |  | B1 |
|  | binds | binds | B2 |

Source: PMC11927444 (Journal for Immunotherapy of Cancer, 2025)
